According to publication PMC4730607, “DNA-binding sequence specificity of DUX4”:

B1: SELEX4 (dsDNA)
DNA 1: GGCAGTCTAATGTTTTATAGTCGGC
DNA 2: GCCGACTATAAAACATTAGACTGCC
B2: DUX4(half) (dsDNA)
DNA 1: GGCAGTCCAGCGTAATCAAGTCGGC
DNA 2: GCCGACTTGATTACGCTGGACTGCC
B3: Pitx1-25 (dsDNA)
DNA 1: GGCAGTCTTCTAATTAGTAGTCGGC
DNA 2: GCCGACTACTAATTAGAAGACTGCC
B4: MALR (dsDNA)
DNA 1: GGCAGTCTAATTGAATCAAGTCGGC
DNA 2: GCCGACTTGATTCAATTAGACTGCC
B5: DUX4(CC) (dsDNA)
DNA 1: GGCAGTCTAATCCAATCAAGTCGGC
DNA 2: GCCGACTTGATTGGATTAGACTGCC
B6: DUX4(mut) (dsDNA)
DNA 1: GGCAGTCGTGAATAATCAAGTCGGC
DNA 2: GCCGACTTGATTATTCACGACTGCC
B7: DUX4(TT) (dsDNA)
DNA 1: GGCAGTCTAATTTAATCAAGTCGGC
DNA 2: GCCGACTTGATTAAATTAGACTGCC
B8: DUX4(TC) (dsDNA)
DNA 1: GGCAGTCTAATTCAATCAAGTCGGC
DNA 2: GCCGACTTGATTGAATTAGACTGCC
B9: SELEX2 (dsDNA)
DNA 1: GGCAGTCTAATTCAATCCAGTCGGC
DNA 2: GCCGACTGGATTGAATTAGACTGCC

biological target: T1, DUX4 DNA-binding domain (DUX4-HD, both homeodomains) (UniProt Q9UBX2 19-152); assay: EMSA; excess protein; Direct EMSA: 10 uL 100 uM probe + 20 uL 250 uM protein (protein stock in 500 mM NaCl, 20 mM Tris-Cl pH 7.4), 1 h on ice, 3% agarose, EtBr; competition: 10 uL 100 uM competitor, 2 uL 125 uM protein (50% glycerol, 250 mM NaCl, 10 mM Tris-Cl pH 7.4), 2 uL 100 uM FAM-CT, 30 uL total, 1 h on ice; details: protein: recombinant; tags: N-terminal His6 removed by TEV (first construct); His-SUMO fusion (later construct); blunt
T1 sequence (Q9UBX2 19-152): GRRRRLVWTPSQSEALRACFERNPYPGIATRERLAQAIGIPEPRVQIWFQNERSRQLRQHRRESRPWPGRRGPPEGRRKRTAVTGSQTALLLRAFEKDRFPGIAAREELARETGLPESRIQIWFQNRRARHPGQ

Row | Binder | binding result
1 | B1 | no binding
2 | B2 | no binding
3 | B3 | no binding
4 | B4 | binds

biological target: T1, DUX4 DNA-binding domain (DUX4-HD, both …); assay: competition; vs FAM-CT; Direct EMSA: 10 uL 100 uM probe + 20 uL 250 uM protein (protein stock in 500 mM NaCl, 20 mM Tris-Cl pH 7.4), 1 h on ice, 3% agarose, EtBr; competition: 10 uL 100 uM competitor, 2 uL 125 uM protein (50% glycerol, 250 mM NaCl, 10 mM Tris-Cl pH 7.4), 2 uL 100 uM FAM-CT, 30 uL total, 1 h on ice; details: protein: recombinant; tags: N-terminal His6 removed by TEV (first construct); His-SUMO fusion (later construct); blunt

Row | Binder | binding result
5 | B5 | binds
6 | B6 | no binding
7 | B7 | binds
8 | B8 | binds

biological target: T1, DUX4 DNA-binding domain (DUX4-HD, both …); assay: competition; vs FAM-CT; CT competed best; Direct EMSA: 10 uL 100 uM probe + 20 uL 250 uM protein (protein stock in 500 mM NaCl, 20 mM Tris-Cl pH 7.4), 1 h on ice, 3% agarose, EtBr; competition: 10 uL 100 uM competitor, 2 uL 125 uM protein (50% glycerol, 250 mM NaCl, 10 mM Tris-Cl pH 7.4), 2 uL 100 uM FAM-CT, 30 uL total, 1 h on ice; details: protein: recombinant; tags: N-terminal His6 removed by TEV (first construct); His-SUMO fusion (later construct); blunt

Row | Binder | binding result
9 | B9 | binds
